# Test results as given in the supplement of paper PMC12764529.
# ± gives the half width of the 95% confidence interval.
# Columns and labels:
# [1] = folding stability dG unfold from trypsin proteolysis; higher = more stable
# How it was run: (§1)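 Sequencing followed digestion of designed mini-proteins with trypsin and chymotrypsin, each at 11 concentrations in threefold dilutions together with a no-protease condition. The mini-proteins were under 80 residues, had no cysteine, sat in a PA-tagged cDNA display construct, and were kept only if AlphaFold2 dimer inter-PAE was above 15. From the counts, Bayesian fitting gave K50, and unfolding free energy was derived against a sequence-predicted unfolded-state K50 and a shared folded-state K50, per protease or combined.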
# [2] = folding stability dG unfold from chymotrypsin proteolysis; higher = more stable
# How it was run: as §1
# [3] = folding stability dG unfold (combined trypsin and chymotrypsin); higher = more stable
# How it was run: as §1
Sequence,folding stability dG unfold [1] [kcal/mol],folding stability dG unfold [2] [kcal/mol],folding stability dG unfold [3] [kcal/mol]
SAGGDATIVLTDFPEDDPEARIRTARNLYRELKAAGPPLRINILTDTPLGREVADYLESEGIEVGLGSAGGS [r16_450_TrMRF],-0.828 ± 0.43,-0.206 ± 0.26,-0.33 ± 0.2
SAGGSAGGSAGSKKKRVITIWIPPNQSIEEAKNFMDEGFPIKEIDVQTRPDGHMMVTITLSAGGSAGGSAGG [r11_97_TrROS],1.56 ± 0.061,1.05 ± 0.14,1.21 ± 0.14
SAGGSAGGSKKKVTINIVLTVKPGETLTLTVEITIDGKKYKVTKTLTYDPKTNKLVLTATVEPSAGGSAGGS [r12_136_TrROS_Hall],3.78 ± 0.32,5.03 ± 0.24,5.03 ± 0.29
SAMTIEEAIEKGKIGAIVKVEVELPNGGKIEIEIFIESESLEEALEKIKAFFEALNLKVKIIEVKVFPVSAG [r14_854_TrMRF],3.4 ± 0.19,2.87 ± 0.1,3.09 ± 0.36
SEITIKLKVENLSEEELKKLAEELAKEGLFEITSIKVENGYVTITIKKKPKPPPKPEKKKVVFDKDGKPVSA [r9_830_TrROS_Hall],0.975 ± 0.071,2.58 ± 0.12,2.2 ± 0.14
SAGGSAGGSAGGVIVLKSDNSVIIITKKVYTENGKPKKTIIEKKNLKKKPPKPLSIEIISAGGSAGGSAGGS [r10_1043_JUSTAS],0.77 ± 0.067,0.374 ± 0.27,0.681 ± 0.15
SAGGSAGGSMLEEKIKQVPKSEKATITIKVKNENGKWKVVTVEVTYIEGKNEYEVKITITPEPGSAGGSAGG [r6_545_JUSTAS],1.73 ± 0.2,3.04 ± 0.18,2.29 ± 0.3
SMPKKIIVLEVDEEEIKEFLEKLELGEDTEVKILLSFPDGKTALLEIGPNEIKSIKPIDAIPEKAYIVIASA [r9_849_TrMRF],1.71 ± 0.14,0.755 ± 0.14,1.08 ± 0.2
STKLLPFEEALKEAEKAIKEGKKKVNITIYTPDGKTFNLTDVEKVKEFIEKEFPGISLSELTVTVSITPPES [r1_325_JUSTAS],2.86 ± 0.068,3.53 ± 0.065,3.3 ± 0.067
SAGGSAGGSAEPVRLVVVTPGFPDGPPIPVEELEALLEAEDVTVVDPFTIPELGYVVLLVEASAGGSAGGSA [r18_466_TrMRF],1.4 ± 0.048,0.728 ± 0.092,1.07 ± 0.1
SIWFSPGKKYKIDEIRFGGWEIEKFTAQVGPDGNIQIPMDIKPVKKPPPPPPVVRNPEDGKYYDPGDPKDSA [r9_603_TrROS],-0.127 ± 0.39,1.64 ± 0.25,1.04 ± 0.78
SAATSSTSISIPASTTSLEDVRATLAALGYPPERIVALEVVKVEPGSTKITVTLERPDGTRRTVTVTSASAG [r14_30_JUSTAS],3.14 ± 0.054,2.388 ± 0.011,2.76 ± 0.058
SAGGSAGGSAGGMMKITIEVDGKKIEITLPPGAELKFDKEKKEIYIRNKKTNEILKLKIKSAGGSAGGSAGG [r7_7_TrROS_Hall],1.9 ± 0.048,2.35 ± 0.041,2.21 ± 0.11
SAGGSAKKKKVTITIEVVKNKETGEYLVRIKIKVDGKEYEIVMSEDELKALIDAGVKIEKIEVYPRSAGGSA [r15_783_TrROS_Hall],1.6 ± 0.017,2.99 ± 0.082,2.59 ± 0.1
SAGGGSMEVVKEEVSEEVEVLPNGTVLTTKTITYKTPDGKEYTETVLERVDPVTGKREVIEKKTYPSSAGGS [r16_50_JUSTAS],1.59 ± 0.12,2.64 ± 0.045,2.4 ± 0.1
SAPVIEITEVTFNPDGSVEVTLVIPFPDDPEIPPEEIAKAIKEAFGFEEVTVEPIPETGAWRITLRAPGSAG [r14_228_TrMRF],3.4 ± 0.14,4.18 ± 0.089,4.07 ± 0.12
SAGGSAGGSDLPIKIKMEPIPPGMPPGQVYRMEIEIPNGWVIRYSFYFTGGKLEFEPMEIKPVSAGGSAGGS [r12_1049_TrROS],2.22 ± 0.19,3.58 ± 0.08,3.13 ± 0.28
MEVKIKVEIVKVEEVEVKKKKDGKEEKFIRIEIKIEVEAKPGLSEEEIKKLAEELAKKLKELGLEVEVKKES [r1_305_TrROS_Hall],0.993 ± 0.091,2.15 ± 0.13,1.96 ± 0.22
SAMKIKVPPGAEIITEDGEKIEPGQEVEVTDIEFDEETGEVHITVKIKNPETGEEIEEKVTIRFPKEEESAG [r14_258_TrROS_Hall],1.29 ± 0.11,0.977 ± 0.042,1.09 ± 0.15
KTRHIPIRDALDEAEELIDEGPRMVKITIYNNNGQKHEIETLKDILDKLKSNFPGMPPDNMKVQVEVIPPPS [r1_325_TrROS],-0.297 ± 0.68,-0.0938 ± 0.22,-0.211 ± 0.3
SAGGSAGGSKNGEPPPVPTITMRFKDPDKIRKLNKKAGLPIEHDPGNGYITFPYRQIDKILKASAGGSAGGS [r12_325_TrROS],3.98 ± 0.8,5.86 ± 0.32,> 6

Sequence,folding stability dG unfold [1] [kcal/mol],folding stability dG unfold [2] [kcal/mol],folding stability dG unfold [3] [kcal/mol]
SAGGIAEAIGEAIAKAPGVAEVEVDIEITKIEPTPGDGAYAHIDIRVRARHPVTGEEVELRFDIVFPLDSAG [r5_176_TrMRF],2.89 ± 0.14,3.18 ± 0.15,3.05 ± 0.17
SAGGSAGGSAGGMYRIKVTTKDGRERVIEVKPGEEITLEELRKAGLSEEEIERVEIEEVSAGGSAGGSAGGS [r10_565_TrROS_Hall],1.89 ± 0.076,1.85 ± 0.051,1.84 ± 0.092
SAGGKNVKKYVPIEIEIEAPSPEVAEATAEEIEKIIREKFPGAKVEVEMEPLPDGGYKLKVKVYVPVGSAGG [r13_17_TrMRF],1.82 ± 0.059,3.47 ± 0.059,3.11 ± 0.07
KLKFKVKIKNPKTNETVEVEVELNEDGTVTVKVNGKLIAKFKIVAKPKPKVETKKVKDANGNEKTYKKVKFS [r1_496_TrROS_Hall],1.15 ± 0.12,2.41 ± 0.27,1.91 ± 0.41
SAKIVVKLPEKPKVAVIEFPPGMTKEEILKALEEVPGLSEEEREALKKKIEELEALAKNPELLKKLEEESAG [r14_732_TrROS_Hall],-0.378 ± 0.087,1.19 ± 0.051,0.797 ± 0.12
SAGGSAGGSAGKKITIPNLDVMRNPDDGMAFIQFGGQMIMIPPNVKIEQDPNGWMEIELPSAGGSAGGSAGG [r17_34_TrROS],0.625 ± 0.064,-0.845 ± 0.69,0.144 ± 0.12
SAGGSAGGSAGMVKVKITAPPNASLDAIIKAVKDNGAEIISIERKGNELIIEVEIPEENASAGGSAGGSAGG [r11_672_TrMRF],1.54 ± 0.054,1.28 ± 0.046,1.42 ± 0.062
SAGNVTIRISFYPRKDGWFFRIKVHFDGKPRELMIPPDDSAEDLADELEKKLGADVTDIEVEWMPLEDGSAG [r5_181_TrROS],3.27 ± 0.1,4.25 ± 0.083,3.88 ± 0.12
SAGGSAGGWIPVEELAKEFGFSPDFIEQLMKNGYKIEYEYHEPGWVRLSVENPDNGKKREITFPSAGGSAGG [r6_969_TrROS],1.43 ± 0.022,2.183 ± 0.019,1.92 ± 0.053
SAGGSAGGSASTITITTPSGEKVKVTLTSLPTPTTLATITVTSTGKTYTIVIAPDGTITLASAGGSAGGSAG [r3_15_JUSTAS],3.4 ± 0.067,3.66 ± 0.026,3.54 ± 0.075
SAGGSAGGVVVVAKFPTREAVFVAPESLTPEQFAEALRRELGNPDAPLVDLEVRRVTPEELLAASAGGSAGG [r6_120_TrMRF],-0.269 ± 0.16,1.05 ± 0.12,0.691 ± 0.15
SAGGSAGGSADDEIVAEFTFTVPGTGVKKVKVKVFKDPNSDEYWVRVEGKWLPVSNPEEALESAGGSAGGSA [r18_67_TrMRF],1.62 ± 0.11,2.4 ± 0.066,2.1 ± 0.14
SAGGLRVHPNSLYIWIPPGGNFDDFVKEIAQELQKKGKPMEIKVEPFPDGWYWIRIKVDGKDIEIWMSAGGS [r16_771_TrROS],2.02 ± 0.065,3.24 ± 0.039,3.02 ± 0.1
SAGGSAGGSAGFFRVDIDIMMSPEMLDLMKKNPGLPPGQEIPIMVVIKREPVPYDPNGKLSAGGSAGGSAGG [r17_194_TrROS],1.375 ± 0.013,2.1 ± 0.043,1.8 ± 0.051
SAGMVKAKLKVIPVTVDGKPKLYVKVELEIPGGPKFELVFETGSPEKAKELLEKLGLKVKDEDIEIEESSAG [r5_233_TrMRF],2.83 ± 0.11,3.69 ± 0.14,3.34 ± 0.18
SAGGSAGGSAVITLKPGETITITATITNADGSTVTITEVVRLPDGRLVVRVTNADGETYEFVLSAGGSAGGS [r12_31_TrROS_Hall],3.54 ± 0.16,3.3 ± 0.12,3.44 ± 0.089
SAGGSAGGMKYTTTTETSVVEVRTDPKTGTTTRLERVTVTTVDSSGNVLSTTETLEERVDPVPASAGGSAGG [r6_181_JUSTAS],2.1 ± 0.059,2.163 ± 0.0081,2.15 ± 0.039
SAGGSAGGSKFEITEVSVELVEVDGKLYLKVSMTIKNEDGSTYKISLVYDLENNELYLSIEKVSAGGSAGGS [r12_1035_TrROS_Hall],4.12 ± 0.43,5.7 ± 0.16,5.87 ± 0.37
SVEKARERLEKLGFKLVSVDPLEDGSVVLTFEFPDNKVVVLVDEDGNARIVAYNPSDGKFSEATFNLDDLSA [r9_2_TrMRF],2.84 ± 0.066,2.577 ± 0.024,2.7 ± 0.038
SAGMVIELKTEEEAKAKAEEIAKKNPEANVTLVVTDPETGVKTVIPVKIESPKPKPEFDKKNGKYKDKGSAG [r5_870_JUSTAS],-0.126 ± 0.2,-0.455 ± 0.45,-0.0134 ± 0.35
SAGGDLEAKPFEITFVIKAKPFPTPDGRLVETPEKVFKLKVLVVRGPNETRLFVFDEDGNLLFTSNLSAGGS [r16_92_TrMRF],2.37 ± 0.051,3.888 ± 0.022,3.39 ± 0.064
